The target in this assay is T1, mouse HVEM on splenic T cells (mouse (endogenous in splenic T cells), UniProt Q80WM9 39-275).
T1 sequence (looked up): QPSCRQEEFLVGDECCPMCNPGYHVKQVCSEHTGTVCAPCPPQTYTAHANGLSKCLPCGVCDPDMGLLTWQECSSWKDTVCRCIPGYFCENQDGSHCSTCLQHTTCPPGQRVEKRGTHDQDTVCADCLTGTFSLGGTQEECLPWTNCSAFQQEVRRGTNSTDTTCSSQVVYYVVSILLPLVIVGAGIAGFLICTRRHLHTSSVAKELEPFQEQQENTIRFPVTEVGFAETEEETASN
Description: flow cytometry on cells. For orientation: In flow cytometry, cells or beads pass a laser one at a time.

B1: mouse BTLA-Fc (Fc fusion, UniProt Q7TSA3 30-183, looked up)
chain: EKATKRNDEECPVQLTITRNSKQSARTGELFKIQCPVKYCVHRPNVTWCKHNGTICVPLEVSPQLYTSWEENQSVPVFVLHFKPIHLSDNGSYSCSTNFNSQVINSHSVTIHVRERTQNSSEHPLITVSDIPDATNASGPSTMEERPGRTWLLY
B1: the “MFI ratio of Btla-/- T cells to WT T cells” value is 4.4.

The record behind these values is PMC2865256 (Journal of immunology (Baltimore, Md. : 1950), 2009).
